Assay: yeast display, Sf9 membrane polyspecificity reagent, FACS + sequencing; frameworks hold sequencing errors
Procedure, shortened: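 A synthetic nanobody library was expressed on Saccharomyces cerevisiae BJ5465 by galactose induction for 36–48 hours. The library was stained for 1 hour at 4 °C with 10% biotinylated, detergent-solubilized Sf9 membrane reagent and enriched with streptavidin microbeads before FACS. Low and high (top ~1%) gates were set on anti-HA fluorescence for expression and streptavidin fluorescence for reagent binding, and each polyreactivity label reflects the gate of origin.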
For “QVQLVKSGGGLVQAGGSLRLSCAASGFIIPEYTMGWYRPAPGKERELVAAISGSGGSTYYADSVKGRFTISRDNAKNTVYLQMNSLKPEDTAVYYCAASYAVSRYLQTYAHAHGYWGQGTQVTVSS”, the “polyreactivity (PSR sort gate)” value was “low polyreactivity”.
For “QVQLVKSGGGLVQAGGSLRLSCAASGFIIPEYTMGWYRQAPVKERELVAAISGSGGSTYYADSVKGRFTISRDNAKNTVYLQMNSLKPEDTAVYYCAASYAVSRYLQTYAHAHGYWGQGTQVTVSS”, the “polyreactivity (PSR sort gate)” value was “low polyreactivity”.
For “QVQLVKSGGGLVQAGGSLRLSCAASGSTFNKYTMGWYRQAPWKERELVAAITSGDSTYYADSVKGRFTISRDNAKNTVYLQMNSLKPEDTAVYYCAKSLRAYRHVIYGKALYSWGQGTQVTVSS”, the “polyreactivity (PSR sort gate)” value was “low polyreactivity”.
In the case of “QVQLVQSGGGLFQAGGSLRLSCAASGRTFEPNAMGWYRQAPGKERQLVAAITNGGSTSYADSVKGRFTISRDNAKNSVYLQMNSLKPEDTAVYYFAGDLGRNLLHTYYYWGQGTQVTVSS”, the “polyreactivity (PSR sort gate)” value was “low polyreactivity”.
For “QVQLVQSGGGLVHAGGSLRLSCAASGRIFGINAMGWYIQAPGKERELVAAINWSGGSTYYADSVKGRFTISRDNAKNTVYLQMNSLKPEDTAVYYCADQKYQRVGYWGQGTQVTVSS”, the “polyreactivity (PSR sort gate)” value was “high polyreactivity”.
With “QVQLVQSGGGLVQAGGSLRLSCAASGLIFYPYAMGWYRQAPGKERELVAAITSGDSTYYADSVKGRFTISRDNAKNTVYLQMNSLKPEDTAVYYCNAYQWGGRYWLVTYDYWGQGTQVTVSS” the “polyreactivity (PSR sort gate)” value was “low polyreactivity”.
In the case of “QVQLVQSGGGLVQAGGSLRLSCAASGLTLRGNTMGWYRQAPGKEREMVADITASAGSTYYADSVKGRFTISRDNAKNTVYLQMNSLKPEDTAVYYCATVRYDVAAWAYSEYYYWGQGSQVTVSS”, the “polyreactivity (PSR sort gate)” value was “low polyreactivity”.
With “QVQLVQSGGGLVQAGGSLRLSCAASGRIFADNAMGWYRQAPGKERELVADITYSGGSTYYADSVKGRFTISRDNAKNTVYLQMNILKPEDTVVYYCAAGRSSLYFPGYYYWGQGTLVTVSS” the “polyreactivity (PSR sort gate)” value was “low polyreactivity”.
In the case of “QVQLVQSGGGLVQAGGSLRLSCAASGRIIGVNAMGWYRLAPGKERQLVADISSGRSTTYADSVKGRFTISRDNAKNTVYLQMNSLKPEDTALYYCNARFRFRYKFPSRHSWGQGSQVTVSS”, the “polyreactivity (PSR sort gate)” value was “high polyreactivity”.
With “QVQLVQSGGGLVQAGGSLRLSCAASGRTFGYYAMGWYRQAPGQERELVAAITRTGGSTHYADSVKGRFTISRDNAKNTVYVQMNSLKPVDTAVYYCARDYRYTIPYDYWGQGTQVTVSS” the “polyreactivity (PSR sort gate)” value was “low polyreactivity”.
In the case of “QVQLVQSGGGLVQAGGSLRLSCAASGRTFPIYAMGWYRQAPWKERELVAAITRGGRTNYADSVMGRFTISRDNAKNTVYLQMNSLKPEDTAVYYCDARTYGTYLYAEYDYWGQCTQVTVSS”, the “polyreactivity (PSR sort gate)” value was “high polyreactivity”.
For “QVQLVQSGGGLVQAGGSLRLSCAASGSIFGYYAMGWYRQAPGKERELVAVITSVATTNYADSVKGRFTISRDNAKNTVYLQMNSLKPEDTAVYYCAARPQVKRGRYGYWGQGTQVTVSS”, the “polyreactivity (PSR sort gate)” value was “low polyreactivity”.
In the case of “QVQLVQSGGGLVQAGGSLRLSCAASGSTFWMNAMGWYRQAPGKEREFVAAITVRGGSTYYADSVKGRFTISRDNAKNTVYLQMNSLKPEDTAVYYCNRPSSLAWPWTGSFSRYDYWGQGTQVTVSS”, the “polyreactivity (PSR sort gate)” value was “low polyreactivity”.
In the case of “QVQLVQSGGGLVQAGGSLRLSCAASGYTIYLKAMGWNRQAPGKERELVAAITGSGDDTYYADSVKGRFTISRDNAKNTVYLQMKIMIPEDTAVYYCAARPYYTSSYKDYEYWGQGTQVTVSS”, the “polyreactivity (PSR sort gate)” value was “high polyreactivity”.
For “QVQLVQSGGGLVQAGGSLRLSCAASQNAMGWYRQAPGKERELVAAISKGGGRTYYADSVKGRFTISRDNAKNTVYLQMNSLKPEDTAVYYCNARYYSSQDADRHEYWGQGTQVTVSS”, the “polyreactivity (PSR sort gate)” value was “high polyreactivity”.
With “QVQLVQSVGGLVQAGGSLRLSSAASGSTFTVYAMGWYRQAPGKERELVAAISWRGGSTYYADSVKGRFTISRDNAKKTVYLQMNSLKPEDTAVYYCAADGLDIAPYGYGYWGQGTQVTVSS” the “polyreactivity (PSR sort gate)” value was “low polyreactivity”.
With “QVQLVQSWRGLVQAGASLRLSCAASGRIFPGYAMGWYREAPGKERELDASSSRTGRTNYADSVKGRFTISRVNAKNTVYLQMNRLKPEYTAVYYCANASPWYFWGYDYWGQGSQVTVSS” the “polyreactivity (PSR sort gate)” value was “low polyreactivity”.
With “QVQLVQTGGGLVQAGGSLRLSCAASGRIFLSYTRGWYSQAPGKERELVATIDSRVSTNYADSVKGRFTISRDNAKNTVYLQMNSLKPEDTAVYYCNADGFYSSHGYDYCGQGTQVTVSS” the “polyreactivity (PSR sort gate)” value was “low polyreactivity”.
In the case of “QVQLVQTGGGLVQAGGSLRLSCAASGRIFYRYDMGCYRQAPGKERSLVAAIRYSGGRTYYADSVKGRFTISRDNAKNTVYLQMNSLKPEDNAVYYCADDEFFWSSEEDYWGQVTQVTVSS”, the “polyreactivity (PSR sort gate)” value was “low polyreactivity”.
For “QVQLVVSGGGLVQAGGSLRLSCAASGFIFVNYAMGWYRQAPGKDGELVAAISRGGGRTYYADSVKGRFTISRDNAKNTVYLQMNSLKPEDTAVYYCNARRLGYHQRYFWGQGTQVTVSS”, the “polyreactivity (PSR sort gate)” value was “high polyreactivity”.
With “QVQLVVSGGGLVQAGGSLRLSCAASGFTFRYYAMGWYRQAPGKEREMVAAITRGAGSTYYADSVKGRFTITRDNAKNTVYLQMNSLKPEDTAVYYCAAEFFQYYVATPFDPYNYWGQGTQVTVSS” the “polyreactivity (PSR sort gate)” value was “low polyreactivity”.
With “QVQLVVSGGGLVQAGGSLRLSCAASGIIFPFYVMGWYRQAPGKERELVAAITWSGDGTYYADSVKGRFTISRDNAKNTVYLQMNSLKPEDTAVYYCAAQWYYGGVKYYYWGQGTQVTVSS” the “polyreactivity (PSR sort gate)” value was “low polyreactivity”.
In the case of “QVQLVVSGGGLVQAGGSLRLSCAASGNIFESYGMGGYRQAPGKERELVANINTSCGSTYYADSVKGRFTISRDNAKNTVYLQMNSLKPEDTAVYYCAAEWYPYPWGYGYWGQGTQVTVSS”, the “polyreactivity (PSR sort gate)” value was “low polyreactivity”.
With “QVQLVVSGGGLVQAGGSLRLSCAASGSTFFKYVMGWYIQAPGKERELVAAITWRGGRTYYADSVKGRFTISRDNEKNTVYLQMNSLIPEDTAVYYCAAYDQSLYGRRYDYWGQGTQVTVSS” the “polyreactivity (PSR sort gate)” value was “high polyreactivity”.
In the case of “QVQLVVSGGGLVQAGGSLRLSCAASGSTIASNAMGWYRQAPGKERELVAGISSSDGGTYYADSVKGRFTISRDNAKNNVYLEMNSLKREDTAVYYCNAPPGTFQWQGHSDYWGQGTQVTVSS”, the “polyreactivity (PSR sort gate)” value was “low polyreactivity”.
With “QVQLVVSGGGLVQGGGSLRLSWAASGFILALNAMGWYIQAPGKEREFVADISWSGDSTYYADSVKGRFTISRDNAKNTFYLQMNSLKPEDTAVYYCAADPYYNWGYYYWGQGTQVTVSS” the “polyreactivity (PSR sort gate)” value was “low polyreactivity”.
With “QVQLVVSGGGLVQPGGSLRLSCAASGRIFGLYAMGWYRQAPGKEREVVAAYADSVKGRFTISRDNAKNTVYLQMNSLKPEDTAVYYCAKGPLYAGYSIDLRDFNYWGQGTQVTVSS” the “polyreactivity (PSR sort gate)” value was “low polyreactivity”.
In the case of “QVQMQESGGGLVQAGGTLRLSCAASGSFSADEDMGWYRQAQGKEREFVAGISVGGNTNYADSVKGRFTISRENAKNTVYLQINSLKPEDTAVYYCAVLQDVYDALDYWAQGTQVTVSS”, the “polyreactivity (PSR sort gate)” value was “high polyreactivity”.
With “QVQPVESAGGLVQAGGSLRLSCSASGFIFKYYAMGWYRQAPGKERELVAAISYSGTRTYYADSVKGRFTISRDNAKNTVYLQMNSLKPEDTAVYYCNARDWSFVGTYDYWGQGTQVTVSS” the “polyreactivity (PSR sort gate)” value was “high polyreactivity”.
With “QVQPVESGGGLVHAGGSLRLSCAASGSIFWYNAMGWYRQAPGQEWELVAAINWSGGSTFYADSVKGRFTISRDNEKNTVYLQMNSLNPEDTAVYYCAADDWSTGYDFWGQGTQETVSS” the “polyreactivity (PSR sort gate)” value was “high polyreactivity”.
In the case of “QVQQHESGDGLVQAVGSLRLTCAASGYISGNYYMGWYRQATGKERELVAGIDAFGSSTNYADCVKGRFTISRDNAKNTVYLQMNSLKPEDTAVYYCAARPDGDRLFYYWGQGTQVTVSS”, the “polyreactivity (PSR sort gate)” value was “low polyreactivity”.
In the case of “QVQQQESAGGLVQAGGSLRLSCAASGNIFVDAYMGWYRQAPGKERELVATFAPADSVKGRFTISRDNAKNTVYLQMYSLKPEDTAVYYCAAFTGYSSVFGYWGQGIQVTVSS”, the “polyreactivity (PSR sort gate)” value was “high polyreactivity”.
In the case of “QVQQQESGGGLVQAGGSLRLSCAASGTIFQLTVMGRYRQAPGKERELVASIDYGGNTNYADSVKGRFTISRDNAKNSVYLQKNSMKPEDTEVYYCEASYESWTTHPYWGQGTQVTVSS”, the “polyreactivity (PSR sort gate)” value was “low polyreactivity”.
With “QVQQQESGGGLVQAGGSLRLSCAASGYISVVIGMGWYRQSPGKERELVASIAYGAITYYTDSVKGRFTISRDYAKNTEYLQMNSLKAEDTAVYYCAADKPPLAYHWYWGQGTQATVSS” the “polyreactivity (PSR sort gate)” value was “high polyreactivity”.
In the case of “QVQQQESGGGLVQAGGSLRQSYAASGYIFPSLAMGWYRQAPGKEREFVAAIGRGSTNNYADSVKGRFTISRDNAKNTAYQQMNSLKPEDTAVYYCAAAASPLTRHLYWGQGTQVTVSS”, the “polyreactivity (PSR sort gate)” value was “low polyreactivity”.
For “QVQQQESGGGLVQVGGSQRLSCAASGNIFYNYAMGWYRHAQGKEREFDATINHGTSINYADSVKGRFTISRDNAKNTVYLQMNSLKPEDTAVYYCAADLSWTDNLFYWGQGTQVTVSS”, the “polyreactivity (PSR sort gate)” value was “low polyreactivity”.
With “QVQQQESGGGMEQARGSLRLSCAASGYISWADYMGCYRQAPGKERELVAVIGYGSTTYYADSVKGRFTMSRDNAKNTAYLQMNSLKPEDTAVYYCAVGWYRDTAYKYWGQGTQVTVSS” the “polyreactivity (PSR sort gate)” value was “low polyreactivity”.
With “QVQQVESGGGLVQAGGSLRLSCAATGIIFNDYHMGWYRQAPGKERELVAAINYSGGSTYYADSVKGRFTISRDNAKNTVYLQMNSLKPEDTAVYYCAADNAVWEYDYWGQGTQVTVSS” the “polyreactivity (PSR sort gate)” value was “low polyreactivity”.
For “QVQQVESGGGLVQAGGSLRLSCAATGRTFALYAMGWYRLAPGKERELVAGITFRGGSTYYADSVKGRFTISRDNAKNTVYLQMNSLKPEDTAVYYCAAERWRWYYSWTMDYWGQGTQVTVSS”, the “polyreactivity (PSR sort gate)” value was “high polyreactivity”.
In the case of “QVQREESGGGLVQAGGSLRLSGAASGIIFHPYAMGWYRQAPGKERELVAAISWSGDGTYYADSVKGRFTISRDNAKNTVYLQMNSLKPEDTAVYYCNAFSQSWNFYGDGDYWGQGTQLTVSS”, the “polyreactivity (PSR sort gate)” value was “low polyreactivity”.
For “QVQRLESRGGLVQAGGSLRLSCAASGSTFDYNAMGWYRQAPGKERELVAAITSSGGSTYYADSVKGRFTISRDNAKNNVYLQMHSLKPEDTAVYYCNADGYVPDYEYWGQGTQVTVSS”, the “polyreactivity (PSR sort gate)” value was “high polyreactivity”.
